Here are results for 4 molecules from PMC9931213, “Structural basis for ATG9A recruitment to the ULK1 complex in mitophagy initiation” (Science Advances, 2023).

Sequences and labels used below:
B2: ATG13^HORMA (1–197):TwinStrep-Flag (TSF)–ATG101 complex (complex, human)
chain 1: METDLNSQDRKDLDKFIKFFALKTVQVIVQARLGEKICTRSSSSPTGSDWFNLAIKDIPEVTHEAKKALAGQLPAVGRSMCVEISLKTSEGDSMELEIWCLEMNEKCDKEIKVSYTVYNRLSLLLKSLLAITRVTPAYRLSRKQGHEYVILYRIYFGEVQLSGLGEGFQTVRVGTVGTPVGTITLSCAYRINLAFMS
chain 2: MNCRSEVLEVSVEGRQVEEAMLAVLHTVLLHRSTGKFHYKKEGTYSIGTVGTQDVDCDFIDFTYVRVSSEELDRALRKVVGEFKDALRNSGGDGLGQMSLEFYQKKKSRWPFSDECIPWEVWTVKVHVVALATEQERQICREKVGEKLCEKIINIVEVMNRHEYLPKMPTQSEVDNVFDTGLRDVQPYLYKISFQITDALGTSVTTTMRRLIKDTLAL
notes: ATG101, human; Heterodimer of two HORMA domains formed beforehand by co-expression; also called ATG13^HORMA:ATG101; source: HEK GnTi- cells, transfected, purified (Strep-Tactin resin, Superdex 200); not shown: TwinStrep-Flag (TSF), N-terminal, kept
B3: ATG13^HORMA (1–197), no tag (domain or fragment, human, UniProt O75143 1-197, looked up)
chain: METDLNSQDRKDLDKFIKFFALKTVQVIVQARLGEKICTRSSSSPTGSDWFNLAIKDIPEVTHEAKKALAGQLPAVGRSMCVEISLKTSEGDSMELEIWCLEMNEKCDKEIKVSYTVYNRLSLLLKSLLAITRVTPAYRLSRKQGHEYVILYRIYFGEVQLSGLGEGFQTVRVGTVGTPVGTITLSCAYRINLAFMS

Common to all, as to conditions: both partners purified
Test [1] has as its target B3. The experiment in a line: crystal structure; ATG9 HDIR (828–839)–fused ATG101 (1–198):ATG13 (1–197) complex, 6 mg/ml; sitting drop, 288 K, 0.1 M Hepes pH 7.5, 0.2 M NaCl, 12% PEG8000; 2.4 Å.
For test [2], the target named is T1, MBP-ATG9A (full-length autophagy-related protein 9A) (human, UniProt Q7Z3C6 1-839).
T1 construct: In detergent (DDM/CHS) micelles; also called wild-type MBP-ATG9A; ATG9A wild type (WT); source: HEK GnTi- cells, transfected; not shown: MBP, N-terminal, kept
T1 sequence (looked up): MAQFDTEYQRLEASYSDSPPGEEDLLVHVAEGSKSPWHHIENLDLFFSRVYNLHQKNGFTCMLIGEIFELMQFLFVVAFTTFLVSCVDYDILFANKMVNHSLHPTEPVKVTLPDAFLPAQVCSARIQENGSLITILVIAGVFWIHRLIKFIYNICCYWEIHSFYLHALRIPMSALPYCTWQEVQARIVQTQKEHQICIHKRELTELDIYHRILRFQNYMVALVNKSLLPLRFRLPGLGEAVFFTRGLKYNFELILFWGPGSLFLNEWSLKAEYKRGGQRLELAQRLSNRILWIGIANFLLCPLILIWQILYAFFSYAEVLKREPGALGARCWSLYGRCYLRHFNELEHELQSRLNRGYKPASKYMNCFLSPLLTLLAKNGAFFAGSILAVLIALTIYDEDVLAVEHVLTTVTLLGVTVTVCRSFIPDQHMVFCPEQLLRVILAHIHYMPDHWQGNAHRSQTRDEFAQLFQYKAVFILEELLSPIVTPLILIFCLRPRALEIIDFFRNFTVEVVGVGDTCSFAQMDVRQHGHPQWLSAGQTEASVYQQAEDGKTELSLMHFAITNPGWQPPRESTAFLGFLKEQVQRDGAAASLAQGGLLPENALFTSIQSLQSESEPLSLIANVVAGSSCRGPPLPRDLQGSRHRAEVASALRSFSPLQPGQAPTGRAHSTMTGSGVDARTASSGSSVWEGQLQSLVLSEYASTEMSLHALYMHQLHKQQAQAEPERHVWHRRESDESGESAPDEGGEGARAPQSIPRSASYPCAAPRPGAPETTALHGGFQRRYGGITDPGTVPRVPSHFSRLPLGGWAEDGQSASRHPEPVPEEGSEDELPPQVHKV
Nature of the test: pull-down; recombinant MBP-ATG9A constructs (1.2 μM) on amylose resin with TSF-ATG101:ATG13 (1–197) complex (3 μM), 4°C overnight, ITC buffer (25 mM Hepes pH 7.5, 150 mM NaCl, 1 mM MgCl2, 1 mM TCEP); full-length MBP-ATG9A in DDM/CHS micelles (0.05% DDM/CHS); SDS-PAGE.

Test [3] has as its target T2, ATG101 (1–198) as in the crystallised fusion (human, UniProt Q9BSB4 1-198).
T2 construct: ATG101, human, residues 1-198; written on its own for the pairs that touch; also called ATG101 HORMA domain; source: HEK 293GnTi cells, as the C-terminal part of the fusion m32
T2 sequence (looked up): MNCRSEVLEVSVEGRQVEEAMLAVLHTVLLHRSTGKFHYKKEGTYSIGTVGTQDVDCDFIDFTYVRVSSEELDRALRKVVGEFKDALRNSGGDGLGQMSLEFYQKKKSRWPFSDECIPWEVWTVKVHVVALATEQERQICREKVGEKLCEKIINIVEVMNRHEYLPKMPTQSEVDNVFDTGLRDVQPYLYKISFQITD
Nature of the test: crystal structure; ATG9 HDIR (828–839)–fused ATG101 (1–198):ATG13 (1–197) complex, 6 mg/ml; sitting drop, 288 K, 0.1 M Hepes pH 7.5, 0.2 M NaCl, 12% PEG8000; 2.4 Å.

In test [4] the target is B2. The experiment in a line: pull-down; recombinant MBP-ATG9A constructs (1.2 μM) on amylose resin with TSF-ATG101:ATG13 (1–197) complex (3 μM), 4°C overnight, ITC buffer (25 mM Hepes pH 7.5, 150 mM NaCl, 1 mM MgCl2, 1 mM TCEP); full-length MBP-ATG9A in DDM/CHS micelles (0.05% DDM/CHS); SDS-PAGE.

B1: ATG9A HDIR (828–839)–GSDEA–ATG101 (1–198) fusion construct (other, human)
chain: SEDELPPQVHKVGSDEAMNCRSEVLEVSVEGRQVEEAMLAVLHTVLLHRSTGKFHYKKEGTYSIGTVGTQDVDCDFIDFTYVRVSSEELDRALRKVVGEFKDALRNSGGDGLGQMSLEFYQKKKSRWPFSDECIPWEVWTVKVHVVALATEQERQICREKVGEKLCEKIINIVEVMNRHEYLPKMPTQSEVDNVFDTGLRDVQPYLYKISFQITD
notes: flexible linker of five residues; ATG101, human, residues 1-198; also called ATG9A HDIR-ATG101 fusion construct; not shown: GST, N-terminal, cleaved
In the case of B1, in test [1], the binding result is “binds”. Take B2: the binding result in test [2] is on record as “binds”. On to B3, for which the binding result in test [3] was “binds”.

B4: MBP-ATG9A (692–839), monomeric (domain or fragment, human, UniProt Q7Z3C6 692-839, looked up)
chain: QLQSLVLSEYASTEMSLHALYMHQLHKQQAQAEPERHVWHRRESDESGESAPDEGGEGARAPQSIPRSASYPCAAPRPGAPETTALHGGFQRRYGGITDPGTVPRVPSHFSRLPLGGWAEDGQSASRHPEPVPEEGSEDELPPQVHKV
notes: source: HEK GnTi- cells, transfected, purified (amylose resin, Superose 6); not shown: MBP, N-terminal, kept
Regarding B4, the binding result in test [4] is “binds”.
